Laboratory results taken from patent US20250041430A1, “CONJUGATE COMPOUND AND METHOD FOR PRODUCING CONJUGATE COMPOUND” (NIPPON SHOKUBAI CO., LTD., priority 2021, published 2025).

Legend:
Exonuclease I [1] = molecular target: Exonuclease I (Escherichia coli, UniProt P04995); settings: room temperature (about 25° C.), 0, 10 and 20 minutes, FIG. 4
Experimental: (§1) Quantitative analysis of PGLMA-Mal-nucleic acid and an unmodified nucleic acid in a nucleic acid degradation test described below was performed by ion exchange chromatography. At this time, the analysis conditions were as follows. […]
(§2) To a test tube, 42.5 μL (1.00 nmol) of the PGLMA-Mal-nucleic acid solution obtained in the section of [Preparation of conjugate of Polymer 1 and oligonucleic acid], 5 μL of 10× buffer solution (670 mM Glycine-KOH (pH 9.5), 10 mM DTT, 67 mM MgCl2), 2.5 μL of ultrapure water, and 0.5 μL of Exonuclease I (Takara Bio Inc.) (0.05 Unit/L as the final concentration of Exonuclease I in the mixed solution) were added and mixed, and the mixture was allowed to stand still at room temperature (about 25° C.). […] After 0, 10, and 20 minutes from the start of the reaction, the reaction liquid was collected and analyzed under the analysis conditions in the section of [Analysis conditions of conjugate of Polymer 1 and oligonucleic acid] or the section of [Analysis conditions of unmodified oligonucleic acid], and a residual rate of the nucleic acid was calculated from the following formula.

[2] = system: complement (SC5b-9) in human serum; assay: Evaluation of complement activation (2), MicroVue SC5b-9 Plus EIA; settings: 37° C., 1 hour, compared with the oligonucleic acid, FIG. 5
Source text: Using a microspectrophotometer (NanoDrop ND-1000, Thermo Fisher Scientific Inc.), Conjugates 5 and 6 thus obtained were each diluted with PBS so that the value at a wavelength of 260 nm was 100. On the other hand, a conjugate (PEG-nucleic acid) prepared according to the description in the section of [Preparation of conjugate of polymer and oligonucleic acid] except that maleimide PEG (SUNBRIGHT ME-100MA, NOF CORPORATION) was used instead of Polymer 3, and the oligonucleic acid (base sequence (5′-d (TAGCACCATGGTTT)-3′)) described in Example 2 were each dissolved in 20 μL of PBS so that the value at a wavelength of 260 nm was 100 by the method described above to prepare a control group. Each solution (4 μL) and human serum (purchased from Tennessee Blood Service) (16 μL) were mixed and incubated at 37° C. for 1 hour. […] For each mixed solution, complement activation was evaluated using an enzyme immunoassay kit (MicroVue™ SC5b-9 Plus EIA, Quidel Corporation). The complement concentration was measured according to the manufacturer's protocol, and the measurement was performed on a plate reader (SH-9000, CORONA ELECTRIC Co., Ltd.). A reaction liquid obtained by reacting PBS with human serum was used as a negative control, and a ratio of the measured value of the negative control and a measured value in each reaction liquid was calculated by the following formula.

Exonuclease I [3] = molecular target: T1, Exonuclease I (Escherichia coli, UniProt P04995); settings: room temperature (about 25° C.), 0, 10 and 20 minutes, FIG. 4; remark: listed apart in the source
T1 sequence (P04995 whole entry, looked up): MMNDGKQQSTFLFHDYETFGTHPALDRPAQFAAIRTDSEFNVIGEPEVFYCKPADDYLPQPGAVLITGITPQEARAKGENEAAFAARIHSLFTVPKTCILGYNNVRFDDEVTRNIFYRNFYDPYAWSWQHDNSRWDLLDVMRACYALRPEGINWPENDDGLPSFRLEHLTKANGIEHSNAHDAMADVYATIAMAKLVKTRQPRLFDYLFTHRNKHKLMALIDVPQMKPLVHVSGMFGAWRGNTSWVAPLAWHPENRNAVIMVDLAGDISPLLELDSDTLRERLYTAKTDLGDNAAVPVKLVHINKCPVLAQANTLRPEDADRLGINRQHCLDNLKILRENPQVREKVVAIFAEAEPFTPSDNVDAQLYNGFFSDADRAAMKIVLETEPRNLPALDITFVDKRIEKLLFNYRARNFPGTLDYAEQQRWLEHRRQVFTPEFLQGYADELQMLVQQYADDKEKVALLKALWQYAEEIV
Experimental: as §1, §2

[4] = system: complement (SC5b-9) in human serum; assay: Evaluation of complement activation (1), MicroVue SC5b-9 Plus EIA; settings: 37° C., 1 hour, compared with BSA, FIG. 2
Experimental: Using a microspectrophotometer (NanoDrop ND-1000, Thermo Fisher Scientific Inc.), Conjugates 1 to 4 subjected to ultrafiltration treatment were each diluted with PBS so that the value at a wavelength of 280 nm was 100. On the other hand, a conjugate (PEG-BSA) prepared according to the description in the section of [Preparation of conjugate with protein] except that maleimide PEG (SUNBRIGHT ME-100MA, NOF CORPORATION) was used instead of Polymer 1, and 100 mg of BSA were each dissolved in 1 mL of PBS to prepare a control group. Each solution (40 μL) and human serum (purchased from Tennessee Blood Service) (160 μL) were mixed and incubated at 37° C. for 1 hour. […] For each mixed solution, complement activation was evaluated using an enzyme immunoassay kit (MicroVue™ SC5b-9 Plus EIA, Quidel Corporation). The complement concentration was measured according to the manufacturer's protocol, and the measurement was performed on a plate reader (SH-9000, CORONA ELECTRIC Co., Ltd.). A reaction liquid obtained by reacting PBS with human serum was used as a negative control, and a ratio of the measured value of the negative control and a measured value in each reaction liquid was calculated by the following formula.
(Ratio with negative control)=(Measured value in each sample)÷(Measured value of negative control)

5′-d (TAGCACCATGGTTT)-3′ [unmodified nucleic acid]
degradation of the nucleic acid (residual rate of the nucleic acid) (Exonuclease I [1]): degradation of the nucleic acid was observed over time

Conjugate 5: maleimide group of Polymer 1 bonded to the thiol group of the oligonucleic acid 5′-d (TAGCACCATGGTTT)-3′ (DNA, backbone not given here; conjugated to polymer via maleimide-thiol, further chemistry not fully specified)
complement activation (ratio with negative control) [2]: no large difference from the measured value of the oligonucleic acid | degradation of the nucleic acid (residual rate of the nucleic acid) (Exonuclease I [3]): remarkable degradation of the nucleic acid was not observed

PEG-BSA: conjugate with BSA prepared using maleimide PEG (SUNBRIGHT ME-100MA) instead of Polymer 1
complement activation (ratio with negative control) [4]: strong complement activation occurred
